One molecule from article PMC11197462 (Structure (London, England : 1993), 2023) can be followed below.

One test addresses Fab favezelimab(mut). Kind of test: SEC.
The target of test [1] is human LAG3, four Ig-like extracellular domains (D1-D4; residues 1-449) (human, UniProt P18627). Kind of test: SEC. Background: SEC sorts molecules by how far they enter the pores of the column.
human LAG3, four Ig-like extracellular domains (D1-D4; residues 1-449), sequence (P18627 23-449): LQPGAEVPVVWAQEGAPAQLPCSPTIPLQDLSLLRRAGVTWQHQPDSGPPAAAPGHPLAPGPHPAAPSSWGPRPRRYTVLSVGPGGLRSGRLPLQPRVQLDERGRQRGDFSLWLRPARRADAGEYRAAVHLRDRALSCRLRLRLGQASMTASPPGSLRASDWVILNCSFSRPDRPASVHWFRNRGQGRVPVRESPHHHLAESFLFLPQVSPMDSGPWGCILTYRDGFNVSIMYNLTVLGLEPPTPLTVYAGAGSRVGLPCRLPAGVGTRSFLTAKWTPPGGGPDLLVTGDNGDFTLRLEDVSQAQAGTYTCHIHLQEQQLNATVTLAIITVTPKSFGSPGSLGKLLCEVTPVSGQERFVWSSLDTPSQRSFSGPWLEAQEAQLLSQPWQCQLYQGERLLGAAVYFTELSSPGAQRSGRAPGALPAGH

B1: Fab favezelimab(mut) (Fab, V domains shown)
VH: EVLLLQSGPELVKPGTSVKIPCKASGYTFTDYNVDWVKQRHGKGLEWIGDINPNNGGTIYSQKFKGKATLTVDKSSSTAFMELRSLTSEDTAVYFCARNYRWFGAMDHWGQGTSVTVSS
VL: DIVLTQSPASLAVSPGQRATISCKASQSLDYEGDSDMNWYQQKPGQPPRLLISGASNLESGIPARFSGSGSGTDFTVNIHPVEEEDAATYYCQQSTEDPRTFGGGTKLEIK
The term stoichiometry N denotes the number of molecules, sites or subunits per partner or assembly. In the test with Fab favezelimab(mut), B1 gave a percent of the protein in the dimer peak of 85% and a stoichiometry N of 2. The “stoichiometry N” value in test [1] is 2.
